Patent EP4748847A1, “PEPTIDE COMPLEX HAVING VEGFR -2 AGONIST ACTIVITY” (Peptidream Inc, priority 2023, dated 2025)
*1 amine or outer side, *2 acyl side, *3 side chain or, on linkers, in order; H or OH if unused. Bridges are numbered along the chain shown (N, C = ends). Primed or numbered codes have the meaning given here. Where no end group is shown, it is not given here. [ ]: non-standard residue; d: D form. CO(CH2)2(OCH2CH2)17CO = O=C(CCOCCOCCOCCOCCOCCOCCOCCOCCOCCOCCOCCOCCOCCOCCOCCOCCOCCC(=O)[*:2])[*:1]; Met(O2) = CS(=O)(=O)CC[C@H](N)C(=O)O; hTyr = N[C@@H](CCc1ccc(O)cc1)C(=O)O; Hyp = O=C(O)[C@@H]1C[C@@H](O)CN1; hArg = N=C(N)NCCCC[C@H](N)C(=O)O; hPhe = N[C@@H](CCc1ccccc1)C(=O)O; Chg = N[C@H](C(=O)O)C1CCCCC1; Tle = CC(C)(C)[C@H](N)C(=O)O; F4aao = not defined here; Ahp′ = not defined here; H4Py = not defined here; Atb = not defined here; F4C = not defined here; Yph = not defined here

B1: Peptide complex Dimer Structure No. 12 (peptide)
peptide: {CH2CO}-WWVDVQDDLYFVDCG
modifications: thioether N-14; also: dimer: Gly15 C-terminus joined to second copy by K-cPEG17c-K
B2: Peptide complex Dimer Structure No. 4 (peptide)
peptide: {CH2CO}-WWVDV[hPhe]DDLYFVDCG
modifications: thioether N-14; also: dimer: C-terminus joined to second copy by PEG12c-K-PEG12c
B3: Peptide complex Dimer Structure No. 10 (peptide)
peptide: {CH2CO}-WWVDVQDDLYFVACG
modifications: thioether N-14; also: dimer: Gly15 C-terminus joined to second copy by PEG12c-K-PEG12c
B4: Peptide complex Dimer Structure No. 15 (peptide)
peptide: {CH2CO}-WWVD[Tle]KDDLYFVDCG-NH2
modifications: thioether N-14; not fully specified (residue 6); also: homodimer: Lys6 joined to Lys6 of second copy by cPEG17c (Linker Structure No. 4)
B5: Peptide complex Dimer Structure No. 11 (peptide)
peptide: {CH2CO}-WWVDVQDDLYFVSCG
modifications: thioether N-14; also: dimer: Gly15 C-terminus joined to second copy by PEG12c-K-PEG12c
B6: Peptide complex Dimer Structure No. 48 (peptide)
peptide: {CH2CO}-WW[Tle]DVKDD[Atb]YF[hTyr]DCG-NH2
modifications: thioether N-14; reading uncertain; also: homodimer: Lys6 joined to Lys6 of second copy by cPEG17c (Linker Structure No. 4)
B7: Peptide complex Dimer Structure No. 35 (peptide)
peptide: {CH2CO}-WW[Tle]DVKDDLYF[hTyr][F4aao]CG-NH2
modifications: thioether N-14; reading uncertain; also: homodimer: Lys6 joined to Lys6 of second copy by cPEG17c (Linker Structure No. 4)
B8: Peptide complex Dimer Structure No. 44 (peptide)
peptide: {CH2CO}-WW[Tle]DVKDDLYF[hTyr]DCG-NH2
modifications: thioether N-14; also: homodimer: Lys6 joined to Lys6 of second copy by cPEG17c (Linker Structure No. 4)
B9: Peptide complex Dimer Structure No. 28 (peptide)
peptide: {CH2CO}-WW[Tle]D[Chg]KDDLYF[hTyr]DCG-NH2
modifications: thioether N-14; not fully specified (residue 6); also: homodimer: Lys6 joined to Lys6 of second copy by cPEG17c (Linker Structure No. 4)
B10: Peptide complex Dimer Structure No. 38 (peptide)
peptide: {CH2CO}-WWV[Met(O2)]VKDDLYF[hTyr]DCG-NH2
modifications: thioether N-14; also: homodimer: Lys6 joined to Lys6 of second copy by OCOPEG13OCO (Linker Structure No. 5)
B11: Peptide complex Dimer Structure No. 56 (peptide)
peptide: {CH2CO}-WW[hTyr]DVKDD[Atb]Y[F4G]VDCG-NH2
modifications: thioether N-14; reading uncertain; also: dimer: Lys6 joined to Lys6 of second copy by OCOPEG13OCO (Linker Structure No. 5)
B12: Peptide complex Dimer Structure No. 55 (peptide)
peptide: {CH2CO}-WW[Tle]DVKDD[Atb]Y[F4G][hTyr]DCG-NH2
modifications: thioether N-14; reading uncertain; also: dimer: Lys6 joined to Lys6 of second copy by OCOPEG13OCO (Linker Structure No. 5)
B13: Peptide complex Dimer Structure No. 57 (peptide)
peptide: {CH2CO}-WW[hTyr]DVKDD[Atb]Y[F4G][hTyr]DCG-NH2
modifications: thioether N-14; reading uncertain; also: dimer: Lys6 joined to Lys6 of second copy by OCOPEG13OCO (Linker Structure No. 5)
B14: Peptide complex Dimer Structure No. 39 (peptide)
peptide: {CH2CO}-WWVDVKDDLY[Yph]V[hArg]CG-NH2
modifications: thioether N-14; reading uncertain; also: homodimer: Lys6 joined to Lys6 of second copy by OCOPEG13OCO (Linker Structure No. 5)
B15: Peptide complex Dimer Structure No. 36 (peptide)
peptide: {CH2CO}-WW[Tle]DV[Ahp′]DDLYF[hTyr]DCG
modifications: thioether N-14; not fully specified (C-terminus); reading uncertain; also: dimer: Gly15 C-terminus joined to second copy by PEG12c-K-PEG12c (Linker Structure No. 1)
B16: Peptide complex Dimer Structure No. 34 (peptide)
peptide: {CH2CO}-WW[Tle]DVKDDLYF[hTyr]FCG-NH2
modifications: thioether N-14; also: homodimer: Lys6 joined to Lys6 of second copy by cPEG17c (Linker Structure No. 4)
B17: Peptide complex Dimer Structure No. 32 (peptide)
peptide: {CH2CO}-WW[Tle]DVK(CO(CH2)2(OCH2CH2)17CO)DDLYF[H4Py]DCG-NH2
modifications: thioether N-14; reading uncertain; also: dimer joined at Lys6 side chains by cPEG17c
B18: Peptide complex Dimer Structure No. 50 (peptide)
peptide: {CH2CO}-WWVDVKDDLYFVDCG-NH2
modifications: thioether N-14; also: homodimer: Lys6 joined to Lys6 of second copy by OCOPEG17OCO (Linker Structure No. 6)
B19: Peptide complex Dimer Structure No. 41 (peptide)
peptide: {CH2CO}-WWVDVKDDLY[F4G][hTyr][Hyp]CG-NH2
modifications: thioether N-14; also: homodimer: Lys6 joined to Lys6 of second copy by OCOPEG13OCO (Linker Structure No. 5)
B20: Peptide complex Dimer Structure No. 37 (peptide)
peptide: {CH2CO}-WWVDVKGVNYF[hTyr]DCG-NH2
modifications: thioether N-14; also: homodimer: Lys6 joined to Lys6 of second copy by OCOPEG13OCO (Linker Structure No. 5)
B21: Peptide complex Dimer Structure No. 54 (peptide)
peptide: {CH2CO}-WW[Tle]DVKDD[Atb]Y[F4G][hTyr][Hyp]CG-NH2
modifications: thioether N-14; reading uncertain; also: dimer: Lys6 joined to Lys6 of second copy by OCOPEG13OCO (Linker Structure No. 5)
B22: Peptide complex Dimer Structure No. 40 (peptide)
peptide: {CH2CO}-WW[hTyr]DVKDDLY[F4G]VDCG-NH2
modifications: thioether N-14; also: homodimer: Lys6 joined to Lys6 of second copy by OCOPEG13OCO (Linker Structure No. 5)
B23: Peptide complex Dimer Structure No. 30 (peptide)
peptide: {CH2CO}-WW[Tle]DVKDDLY[F4C][hTyr]DCG-NH2
modifications: thioether N-14; not fully specified (residue 6); reading uncertain; also: homodimer: Lys6 joined to Lys6 of second copy by cPEG17c (Linker Structure No. 4)
B24: Peptide complex Dimer Structure No. 26 (peptide)
peptide: {CH2CO}-WW[Tle]QVKDDLYF[hTyr]DCG-NH2
modifications: thioether N-14; not fully specified (residue 6); also: homodimer: Lys6 joined to Lys6 of second copy by cPEG17c (Linker Structure No. 4)

Target: T1, VEGFR-2 (human, UniProt P35968 20-1356)
Test: cell-based or functional assay

T1 sequence (P35968 20-1356): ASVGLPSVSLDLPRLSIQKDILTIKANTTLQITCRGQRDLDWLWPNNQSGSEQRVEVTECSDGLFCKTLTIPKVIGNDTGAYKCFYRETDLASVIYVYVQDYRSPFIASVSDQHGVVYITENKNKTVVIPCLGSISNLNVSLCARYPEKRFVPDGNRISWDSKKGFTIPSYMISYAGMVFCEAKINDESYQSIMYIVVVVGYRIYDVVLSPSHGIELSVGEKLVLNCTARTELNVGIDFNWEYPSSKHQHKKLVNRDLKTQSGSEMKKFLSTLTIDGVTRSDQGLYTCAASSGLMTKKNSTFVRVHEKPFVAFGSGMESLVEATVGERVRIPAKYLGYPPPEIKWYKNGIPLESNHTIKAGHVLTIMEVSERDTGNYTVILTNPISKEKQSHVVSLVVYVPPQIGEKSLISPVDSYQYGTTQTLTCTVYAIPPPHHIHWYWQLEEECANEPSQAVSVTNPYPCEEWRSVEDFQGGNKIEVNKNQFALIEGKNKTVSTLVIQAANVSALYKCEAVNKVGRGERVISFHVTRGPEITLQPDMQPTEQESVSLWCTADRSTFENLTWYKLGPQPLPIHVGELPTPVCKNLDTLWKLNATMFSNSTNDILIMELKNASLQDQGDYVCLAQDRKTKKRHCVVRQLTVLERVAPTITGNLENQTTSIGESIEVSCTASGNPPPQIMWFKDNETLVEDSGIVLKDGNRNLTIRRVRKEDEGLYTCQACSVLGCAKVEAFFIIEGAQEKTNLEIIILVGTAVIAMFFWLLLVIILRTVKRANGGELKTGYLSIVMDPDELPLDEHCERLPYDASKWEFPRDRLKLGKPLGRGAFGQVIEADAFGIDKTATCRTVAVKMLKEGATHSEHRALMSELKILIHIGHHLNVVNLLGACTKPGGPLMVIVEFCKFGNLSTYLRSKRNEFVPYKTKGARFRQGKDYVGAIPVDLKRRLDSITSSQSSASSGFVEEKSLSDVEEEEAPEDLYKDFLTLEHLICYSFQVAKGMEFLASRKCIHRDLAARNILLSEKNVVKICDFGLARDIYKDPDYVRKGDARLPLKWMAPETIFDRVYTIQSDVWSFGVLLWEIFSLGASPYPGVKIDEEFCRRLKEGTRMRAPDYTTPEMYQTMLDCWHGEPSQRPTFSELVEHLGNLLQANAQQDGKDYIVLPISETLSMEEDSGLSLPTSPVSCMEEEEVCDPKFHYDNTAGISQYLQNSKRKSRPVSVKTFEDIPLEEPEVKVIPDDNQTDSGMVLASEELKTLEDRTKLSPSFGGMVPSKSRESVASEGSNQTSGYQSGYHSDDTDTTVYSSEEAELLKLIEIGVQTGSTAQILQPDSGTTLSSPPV

pERK Assay Results (AlphaLISA p-Erk1/2, HUVEC)	Binder
< 50 % activity at 100 nM	{CH2CO}-WWVDVQDDLY[Bph]VDCG (thioether N-14; also: dimer: C-termini joined by PEG12c-K-PEG12c linker) [Peptide complex Dimer Structure No. 8]
< 50 % activity at 100 nM	{CH2CO}-WWVDVQDDLYF[hPhe]DCG (thioether N-14; also: dimer: C-termini joined by PEG12c-K-PEG12c linker) [Peptide complex Dimer Structure No. 9]
< 50 % activity at 100 nM	B1
≥ 50 % activity at 10 nM	B2
< 50 % activity at 100 nM	B3
≥ 50 % activity at 100 nM	B4
≥ 50 % activity at 100 nM	{CH2CO}-WWVDVQGDLYFVDCG (thioether N-14; also: dimer: C-termini joined by PEG12c-K-PEG12c linker) [Peptide complex Dimer Structure No. 7]
≥ 50 % activity at 10 nM	{CH2CO}-WWVDVWDDLYFVDCG (thioether N-14; also: dimer joined at Gly15 C-termini by PEG12c-K-PEG12c) [Peptide complex Dimer Structure No. 3]
≥ 50 % activity at 100 nM	{CH2CO}-WWVDV[F4COO]DDLYFVDCG (thioether N-14; also: dimer: C-termini joined by PEG12c-K-PEG12c linker) [Peptide complex Dimer Structure No. 6]
< 50 % activity at 100 nM	B5

Target: T1, VEGFR-2
Test: cell-based or functional assay
Remark: another data set of the same source

pERK Assay Results (AlphaLISA p-Erk1/2, HUVEC)	Binder
≥ 50 % activity at 20 nM	B6
≥ 50 % activity at 10 nM	B7
≥ 50 % activity at 20 nM	B8
≥ 50 % activity at 10 nM	B9
≥ 50 % activity at 100 nM	B10
≥ 50 % activity at 20 nM	B11
≥ 50 % activity at 5 nM	B12
≥ 50 % activity at 20 nM	B13
≥ 50 % activity at 100 nM	B14
≥ 50 % activity at 100 nM	B15
≥ 50 % activity at 10 nM	B16
≥ 50 % activity at 10 nM	B17
≥ 50 % activity at 20 nM	B18
≥ 50 % activity at 10 nM	B19
≥ 50 % activity at 100 nM	B20
≥ 50 % activity at 5 nM	B21
≥ 50 % activity at 10 nM	B22
≥ 50 % activity at 10 nM	B23
≥ 50 % activity at 100 nM	B24
